T1: Spt7 (S. cerevisiae, UniProt P35177 1-1332)
T1 construct: Spt7, S. cerevisiae, second largest SAGA subunit (SPT module); source: endogenous, in the native SAGA complex purified from fermented S. cerevisiae cells
T1 sequence (looked up): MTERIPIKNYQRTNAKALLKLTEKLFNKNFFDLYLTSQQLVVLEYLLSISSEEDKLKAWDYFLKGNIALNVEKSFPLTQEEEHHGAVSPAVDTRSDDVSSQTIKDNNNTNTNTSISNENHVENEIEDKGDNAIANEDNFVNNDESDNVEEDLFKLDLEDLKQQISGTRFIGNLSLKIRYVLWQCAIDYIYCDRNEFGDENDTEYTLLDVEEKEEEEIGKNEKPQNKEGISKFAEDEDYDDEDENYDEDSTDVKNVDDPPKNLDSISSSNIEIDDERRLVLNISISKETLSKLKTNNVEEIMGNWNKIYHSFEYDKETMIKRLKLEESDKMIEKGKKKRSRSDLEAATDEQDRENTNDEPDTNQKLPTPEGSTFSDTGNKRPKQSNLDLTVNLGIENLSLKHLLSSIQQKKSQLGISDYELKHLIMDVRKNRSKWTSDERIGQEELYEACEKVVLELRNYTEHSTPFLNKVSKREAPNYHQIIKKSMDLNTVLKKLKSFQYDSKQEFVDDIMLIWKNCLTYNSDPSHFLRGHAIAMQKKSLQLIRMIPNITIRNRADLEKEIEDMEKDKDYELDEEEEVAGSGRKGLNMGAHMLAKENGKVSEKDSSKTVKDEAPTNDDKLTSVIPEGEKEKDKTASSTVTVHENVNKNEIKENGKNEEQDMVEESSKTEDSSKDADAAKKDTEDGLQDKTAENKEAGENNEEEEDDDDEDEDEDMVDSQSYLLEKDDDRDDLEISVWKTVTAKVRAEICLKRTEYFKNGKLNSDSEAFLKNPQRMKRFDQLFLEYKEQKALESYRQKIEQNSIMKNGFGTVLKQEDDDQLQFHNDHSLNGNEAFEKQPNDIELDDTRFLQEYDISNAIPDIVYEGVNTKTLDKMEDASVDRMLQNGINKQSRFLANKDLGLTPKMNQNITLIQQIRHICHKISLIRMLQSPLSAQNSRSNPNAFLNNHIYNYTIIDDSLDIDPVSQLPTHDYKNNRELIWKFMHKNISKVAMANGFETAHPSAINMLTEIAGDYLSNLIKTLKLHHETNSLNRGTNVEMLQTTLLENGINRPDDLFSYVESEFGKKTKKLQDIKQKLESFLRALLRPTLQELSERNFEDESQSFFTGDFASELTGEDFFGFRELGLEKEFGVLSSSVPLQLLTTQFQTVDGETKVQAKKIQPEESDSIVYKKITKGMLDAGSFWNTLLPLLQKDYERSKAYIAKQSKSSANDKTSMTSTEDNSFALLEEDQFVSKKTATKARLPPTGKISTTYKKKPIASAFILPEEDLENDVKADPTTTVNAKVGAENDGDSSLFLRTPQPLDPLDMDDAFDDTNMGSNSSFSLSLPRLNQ


molecular target: T1, Spt7; experiment: cross-linking; chemical cross-linking of proteins coupled with mass spectrometry (CXMS) on the purified native SAGA complex; 139 unique inter- and 184 unique intra-subunit cross-linking pairs; details: both partners purified

Row | binding result | Binder
1 | binds | Ada2 (natural protein, S. cerevisiae, UniProt Q02336 1-434, looked up, Ada2, S. cerevisiae, SAGA subunit (HAT module); source: endogenous, in the native SAGA complex purified from fermented S. cerevisiae cells) MSNKFHCDVCSADCTNRVRVSCAICPEYDLCVPCFSQGSYTGKHRPYHDYRIIETNSYPILCPDWGADEELQLIKGAQTLGLGNWQDIADHIGSRGKEEVKEHYLKYYLESKYYPIPDITQNIHVPQDEFLEQRRHRIESFRERPLEPPRKPMASVPSCHEVQGFMPGRLEFETEFENEAEGPVKDMVFEPDDQPLDIELKFAILDIYNSRLTTRAEKKRLLFENHLMDYRKLQAIDKKRSKEAKELYNRIKPFARVMTAQDFEEFSKDILEELHCRARIQQLQEWRSNGLTTLEAGLKYERDKQARISSFEKFGASTAASLSEGNSRYRSNSAHRSNAEYSQNYSENGGRKKNMTISDIQHAPDYALLSNDEQQLCIQLKILPKPYLVLKEVMFRELLKTGGNLSKSACRELLNIDPIKANRIYDFFQSQNWM
2 | binds | Spt8 (natural protein, S. cerevisiae, UniProt P38915 1-602, looked up, Spt8, S. cerevisiae, SAGA subunit (SPT module), ~66.2 kDa as printed; source: endogenous, in the native SAGA complex purified from fermented S. cerevisiae cells) MDEVDDILINNQVVDDEEDDEEMLSGLENDSKQDLEGNDDGGEDEEDDDDDDEDDDDDEDEREDDDEQEDDDGEDDAARMDKTATPTNEHQHDEQKAAAAGAGGAGDSGDAVTKIGSEDVKLSDVDGGVGSREASSSTHEASANGEVYEYYKHMLNAAQIADSYNIYPTAAIPIQTHVNALAVSRGLKYLFLGGSDGYIRKYDLLNTLEGKLSLTILQKHSLAESIQNAGILQSYWENEIPQKKSEMKLSANKTDYEPKVSPVHSLEVQSECLFILSGLQNGGITMQGVRYMEGSIAHYFKGRNGHTQIVNILRLNGQEDRFLSGSWDKRLLEWDLQTGDIVNEFKKSRSELSSLEMRPLYSSVDVSGNVNSGKENENADDDMDSLFGDEDEDEKQDAGNEPVETGDGSNGEENKEQISEESLNIVYDESVFMTSGLNGSVHIWDRRMTQSPALSLERGAGVPPWCLSACWGVDGDHVYAGRRNACVEQFDLKMPSKPIHNLKLPSISGPVSCVKAMPNNKHLLCASRDNIRLYNVEIAVDASNSTTKSSKVPFLIVPGHHGGIISNLYLDPTSRFIISTSGNRGWQGNSTDTTLIYDIDLE
3 | binds | Taf6 (natural protein, S. cerevisiae, UniProt P53040 1-516, looked up, Taf6, S. cerevisiae, SAGA subunit (TAF module), ~58 kDa as printed; source: endogenous, in the native SAGA complex purified from fermented S. cerevisiae cells) MSTQQQSYTIWSPQDTVKDVAESLGLENINDDVLKALAMDVEYRILEIIEQAVKFKRHSKRDVLTTDDVSKALRVLNVEPLYGYYDGSEVNKAVSFSKVNTSGGQSVYYLDEEEVDFDRLINEPLPQVPRLPTFTTHWLAVEGVQPAIIQNPNLNDIRVSQPPFIRGAIVTALNDNSLQTPVTSTTASASVTDTGASQHLSNVKPGQNTEVKPLVKHVLSKELQIYFNKVISTLTAKSQADEAAQHMKQAALTSLRTDSGLHQLVPYFIQFIAEQITQNLSDLQLLTTILEMIYSLLSNTSIFLDPYIHSLMPSILTLLLAKKLGGSPKDDSPQEIHEFLERTNALRDFAASLLDYVLKKFPQAYKSLKPRVTRTLLKTFLDINRVFGTYYGCLKGVSVLEGESIRFFLGNLNNWARLVFNESGITLDNIEEHLNDDSNPTRTKFTKEETQILVDTVISALLVLKKDLPDLYEGKGEKVTDEDKEKLLERCGVTIGFHILKRDDAKELISAIFFGE
4 | binds | Ada3 (natural protein, S. cerevisiae, UniProt P32494 1-702, looked up, Ada3, S. cerevisiae, SAGA subunit (HAT module); source: endogenous, in the native SAGA complex purified from fermented S. cerevisiae cells) MPRHGRRGKLPKGEKLPKKEGGDNTPSKLLSSMLKTLDLTFERDIGMLNGKSVRSIPNKKTLLELQSQLDSLNEILGTIARGDQETIEALRKIRDSKNEKQANDEKQETSNADGQHESSTATEETNIIDKGVQSPPKPPPSNEISGTIENDVESIKQAADNMAKEEINEDKDLQVHRDQPREKRPFDSETENRATENENTQRPDNKKQKIDVDKMENDPTVKNPKSEFVVSQTLPRAAAALGLFNEEGLESTGEDFLKKKYNVASYPTNDLKDLLPGELPDMDFSHPKPTNQIQFNTFLAFVENFFKDLSDDNLKFLKMKYIIPDSLQFDKTYDPEVNPFIIPKLGPLYTDVWFKDENDKNSAYKKPSPYSNDASTILPKKSANELDDNALESGSISCGPLLSRLLSAVLKDDNDKSELQSSKIIRDGGLPRTGGEDDIQSFRNNNNDTVDMTLSQENGPSVQTPDNDIDEEASFQAKLAENKGSNGGTTSTLPQQIGWITNGINLDYPTFEERLKRELKYVGIYMNLPKDENNPNSDDPDWVTGREDDEISAELRELQGTLKQVTKKNQKRKAQLIPLVERQLAWQEYSSILEDLDKQIDQAYVKRIRVPKKRKKHHTAASNNVNTGTTSQIAQQKAANSSLKSLLDKRQRWINKIGPLFDKPEIMKRIPNESVFKDMDQEEDEDEADVFAQNTNKDVELN
5 | binds | Taf5 (natural protein, S. cerevisiae, UniProt P38129 1-798, looked up, Taf5, S. cerevisiae, SAGA subunit (TAF module); source: endogenous, in the native SAGA complex purified from fermented S. cerevisiae cells) MSQKQSTNQNQNGTHQPQPVKNQRTNNAAGANSGQQPQQQSQGQSQQQGRSNGPFSASDLNRIVLEYLNKKGYHRTEAMLRAESGRTLTPQNKQSPANTKTGKFPEQSSIPPNPGKTAKPISNPTNLSSKRDAEGGIVSSGRLEGLNAPENYIRAYSMLKNWVDSSLEIYKPELSYIMYPIFIYLFLNLVAKNPVYARRFFDRFSPDFKDFHGSEINRLFSVNSIDHIKENEVASAFQSHKYRITMSKTTLNLLLYFLNENESIGGSLIISVINQHLDPNIVESVTAREKLADGIKVLSDSENGNGKQNLEMNSVPVKLGPFPKDEEFVKEIETELKIKDDQEKQLNQQTAGDNYSGANNRTLLQEYKAMNNEKFKDNTGDDDKDKIKDKIAKDEEKKESELKVDGEKKDSNLSSPARDILPLPPKTALDLKLEIQKVKESRDAIKLDNLQLALPSVCMYTFQNTNKDMSCLDFSDDCRIAAAGFQDSYIKIWSLDGSSLNNPNIALNNNDKDEDPTCKTLVGHSGTVYSTSFSPDNKYLLSGSEDKTVRLWSMDTHTALVSYKGHNHPVWDVSFSPLGHYFATASHDQTARLWSCDHIYPLRIFAGHLNDVDCVSFHPNGCYVFTGSSDKTCRMWDVSTGDSVRLFLGHTAPVISIAVCPDGRWLSTGSEDGIINVWDIGTGKRLKQMRGHGKNAIYSLSYSKEGNVLISGGADHTVRVWDLKKATTEPSAEPDEPFIGYLGDVTASINQDIKEYGRRRTVIPTSDLVASFYTKKTPVFKVKFSRSNLALAGGAFRP

molecular target: T2, Tra1 (S. cerevisiae, UniProt P38811 1-3744); experiment: as above; details: both partners purified
T2 construct: Tra1, S. cerevisiae, largest SAGA subunit (SPT module), 3744 residues as printed; Endogenous subunit; Purification methods and any tag are in the Supplementary Materials; also called Tra1_(SAGA); lobe A; source: endogenous, in the native SAGA complex purified from fermented S. cerevisiae cells
T2 sequence (P38811 whole entry): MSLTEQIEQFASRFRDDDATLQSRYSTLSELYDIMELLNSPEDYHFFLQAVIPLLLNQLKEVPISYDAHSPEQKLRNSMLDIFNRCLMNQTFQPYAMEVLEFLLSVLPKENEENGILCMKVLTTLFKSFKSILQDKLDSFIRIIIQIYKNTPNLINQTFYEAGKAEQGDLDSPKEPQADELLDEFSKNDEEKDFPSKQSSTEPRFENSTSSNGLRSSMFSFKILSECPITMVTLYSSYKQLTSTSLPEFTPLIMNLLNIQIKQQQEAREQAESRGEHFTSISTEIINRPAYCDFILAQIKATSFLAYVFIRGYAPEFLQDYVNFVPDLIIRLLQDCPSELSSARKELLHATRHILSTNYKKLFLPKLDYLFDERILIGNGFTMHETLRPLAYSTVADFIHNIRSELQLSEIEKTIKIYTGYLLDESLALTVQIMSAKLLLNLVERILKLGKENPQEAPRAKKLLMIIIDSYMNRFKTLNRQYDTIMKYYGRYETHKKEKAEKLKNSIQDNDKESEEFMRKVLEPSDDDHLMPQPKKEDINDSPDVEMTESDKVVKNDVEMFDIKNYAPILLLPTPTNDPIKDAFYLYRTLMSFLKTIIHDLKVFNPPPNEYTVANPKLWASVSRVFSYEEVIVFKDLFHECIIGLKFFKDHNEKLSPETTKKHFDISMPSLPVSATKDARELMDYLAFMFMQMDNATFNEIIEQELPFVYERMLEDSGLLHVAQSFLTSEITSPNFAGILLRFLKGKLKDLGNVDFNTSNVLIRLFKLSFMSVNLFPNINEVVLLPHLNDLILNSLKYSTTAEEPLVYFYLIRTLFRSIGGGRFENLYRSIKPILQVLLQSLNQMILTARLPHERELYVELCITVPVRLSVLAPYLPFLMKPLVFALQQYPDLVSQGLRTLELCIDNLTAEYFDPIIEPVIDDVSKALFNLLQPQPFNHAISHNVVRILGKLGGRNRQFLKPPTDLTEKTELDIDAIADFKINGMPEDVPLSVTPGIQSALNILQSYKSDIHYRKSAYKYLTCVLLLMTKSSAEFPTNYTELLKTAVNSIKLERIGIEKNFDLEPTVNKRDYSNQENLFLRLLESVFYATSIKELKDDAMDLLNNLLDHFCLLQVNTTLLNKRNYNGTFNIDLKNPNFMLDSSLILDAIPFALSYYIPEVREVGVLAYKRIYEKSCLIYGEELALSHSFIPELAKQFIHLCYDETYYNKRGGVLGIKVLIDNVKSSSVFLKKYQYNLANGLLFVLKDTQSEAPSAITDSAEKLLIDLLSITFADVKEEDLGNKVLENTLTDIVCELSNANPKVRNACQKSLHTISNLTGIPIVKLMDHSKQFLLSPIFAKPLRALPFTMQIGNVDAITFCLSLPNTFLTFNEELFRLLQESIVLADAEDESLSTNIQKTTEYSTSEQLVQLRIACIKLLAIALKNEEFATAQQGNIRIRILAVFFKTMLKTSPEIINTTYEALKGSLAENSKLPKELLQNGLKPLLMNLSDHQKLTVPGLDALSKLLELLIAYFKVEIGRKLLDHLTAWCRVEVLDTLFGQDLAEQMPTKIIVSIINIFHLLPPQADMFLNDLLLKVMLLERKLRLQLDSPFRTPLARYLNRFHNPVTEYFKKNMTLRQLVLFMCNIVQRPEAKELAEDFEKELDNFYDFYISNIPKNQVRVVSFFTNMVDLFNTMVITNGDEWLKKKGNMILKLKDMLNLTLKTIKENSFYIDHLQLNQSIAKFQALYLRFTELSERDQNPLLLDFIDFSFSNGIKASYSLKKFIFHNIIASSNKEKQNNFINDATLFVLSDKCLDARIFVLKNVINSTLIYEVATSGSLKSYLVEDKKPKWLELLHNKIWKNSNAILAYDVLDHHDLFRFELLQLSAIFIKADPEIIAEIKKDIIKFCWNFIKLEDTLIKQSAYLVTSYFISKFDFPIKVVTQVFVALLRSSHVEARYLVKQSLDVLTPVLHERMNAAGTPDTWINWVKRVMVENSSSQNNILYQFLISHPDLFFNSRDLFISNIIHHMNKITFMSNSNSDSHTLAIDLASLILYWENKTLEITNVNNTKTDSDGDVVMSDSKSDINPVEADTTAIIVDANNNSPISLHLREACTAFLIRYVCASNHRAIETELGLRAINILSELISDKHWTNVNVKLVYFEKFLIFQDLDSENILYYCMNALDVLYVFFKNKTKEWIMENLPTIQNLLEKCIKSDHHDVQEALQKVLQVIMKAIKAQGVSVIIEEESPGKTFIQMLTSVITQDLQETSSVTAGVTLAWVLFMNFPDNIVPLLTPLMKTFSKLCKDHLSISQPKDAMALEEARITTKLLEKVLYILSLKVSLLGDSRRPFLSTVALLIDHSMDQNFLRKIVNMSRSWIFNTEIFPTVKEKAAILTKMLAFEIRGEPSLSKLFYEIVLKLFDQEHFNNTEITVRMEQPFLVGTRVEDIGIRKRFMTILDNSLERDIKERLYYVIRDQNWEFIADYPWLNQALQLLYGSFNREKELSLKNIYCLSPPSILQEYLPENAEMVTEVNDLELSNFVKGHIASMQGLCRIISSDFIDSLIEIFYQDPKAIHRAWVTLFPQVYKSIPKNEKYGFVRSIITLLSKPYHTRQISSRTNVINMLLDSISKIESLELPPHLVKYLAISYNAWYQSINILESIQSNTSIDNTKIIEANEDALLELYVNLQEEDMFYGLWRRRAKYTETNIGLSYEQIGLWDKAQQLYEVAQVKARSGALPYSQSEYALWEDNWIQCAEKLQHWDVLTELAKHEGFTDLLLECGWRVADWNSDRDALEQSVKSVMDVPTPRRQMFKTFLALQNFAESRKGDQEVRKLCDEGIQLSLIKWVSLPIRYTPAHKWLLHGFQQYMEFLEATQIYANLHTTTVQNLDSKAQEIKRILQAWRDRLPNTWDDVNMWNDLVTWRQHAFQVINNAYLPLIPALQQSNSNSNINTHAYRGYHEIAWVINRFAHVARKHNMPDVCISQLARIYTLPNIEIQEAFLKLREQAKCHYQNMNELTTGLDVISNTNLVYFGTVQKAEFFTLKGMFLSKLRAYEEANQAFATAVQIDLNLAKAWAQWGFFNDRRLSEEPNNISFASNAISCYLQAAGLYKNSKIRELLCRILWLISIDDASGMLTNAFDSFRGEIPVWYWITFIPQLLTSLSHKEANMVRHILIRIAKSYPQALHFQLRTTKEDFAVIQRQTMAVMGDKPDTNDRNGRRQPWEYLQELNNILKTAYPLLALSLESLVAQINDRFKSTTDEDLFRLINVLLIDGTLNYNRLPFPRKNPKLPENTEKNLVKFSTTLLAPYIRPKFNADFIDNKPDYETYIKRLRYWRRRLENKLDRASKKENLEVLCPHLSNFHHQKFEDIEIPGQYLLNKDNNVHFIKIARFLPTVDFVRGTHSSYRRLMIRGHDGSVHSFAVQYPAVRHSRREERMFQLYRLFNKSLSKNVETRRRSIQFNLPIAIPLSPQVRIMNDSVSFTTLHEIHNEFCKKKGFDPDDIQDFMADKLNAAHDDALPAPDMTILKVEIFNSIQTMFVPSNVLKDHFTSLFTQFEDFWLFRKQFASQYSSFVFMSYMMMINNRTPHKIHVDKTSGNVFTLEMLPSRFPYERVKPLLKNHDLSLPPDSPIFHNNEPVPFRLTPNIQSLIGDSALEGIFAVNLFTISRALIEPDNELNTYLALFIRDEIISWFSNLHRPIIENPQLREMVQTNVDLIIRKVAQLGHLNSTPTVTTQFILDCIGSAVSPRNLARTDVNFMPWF

Row | binding result | Binder
6 | binds | Ada1 (natural protein, S. cerevisiae, UniProt Q12060 1-488, looked up, Ada1, S. cerevisiae, SAGA subunit (SPT module); source: endogenous, in the native SAGA complex purified from fermented S. cerevisiae cells) MSAIQSPAPKPLQPTYPAASPASTNAYMKPGLIGSPAVSNHTEPNNGNNETAEPQGPNQRIDLGAMIEELTSLLGKESWTKYAQIISLFILGKLSRKELSNELELVFSPSAASLEKSNTNHHHSLVRLHNQLLLGIFANSLRENPLGRNGNESSWGFGNGSNNPNNKLKRINKHNSQIEVYKKIVMSLPLNDRNRLKMITKEAGKRGFIFCSVFQARLNNIPKIPIVTNPESLKRVKSNNLKTPLEWSQDIMNGFNVPLASESHSLPDTDSFYLRMVGIAREHGLVGTVDARCVELISLALDQYLKNIIEFTIDTVRYRRKKYSDYYDLNESGLYKSVSEMAADKRDAKIKQLDDDKNEDECADEAKSINNGNNSSKDDIGDISMSSITKAGEAVNEELHENRTISLTNEDIYDSLSIFPNLVEPSGSYYALTNLGLVNDDELVDMKSNIDDLPDFLNEKPTFTPLDERNVGTRHELNWLIKGILTED
7 | binds | Spt20 (natural protein, S. cerevisiae, UniProt P50875 1-604, looked up, Spt20, S. cerevisiae, SAGA subunit (SPT module); source: endogenous, in the native SAGA complex purified from fermented S. cerevisiae cells) MSANSPTGNDPHVFGIPVNATPSNMGSPGSPVNVPPPMNPAVANVNHPVMRTNSNSNANEGTRTLTREQIQQLQQRQRLLLQQRLLEQQRKQQALQNYEAQFYQMLMTLNKRPKRLYNFVEDADSILKKYEQYLHSFEFHIYENNYKICAPANSRLQQQQKQPELTSDGLILTKNNETLKEFLEYVARGRIPDAIMEVLRDCNIQFYEGNLILQVYDHTNTVDVTPKENKPNLNSSSSPSNNNSTQDNSKIQQPSEPNSGVANTGANTANKKASFKRPRVYRTLLKPNDLTTYYDMMSYADNARFSDSIYQQFESEILTLTKRNLSLSVPLNPYEHRDMLEETAFSEPHWDSEKKSFIHEHRAESTREGTKGVVGHIEERDEFPQHSSNYEQLMLIMNERTTTITNSTFAVSLTKNAMEIASSSSNGVRGASSSTSNSASNTRNNSLANGNQVALAAAAAAAAVGSTMGNDNNQFSRLKFIEQWRINKEKRKQQALSANINPTPFNARISMTAPLTPQQQLLQRQQQALEQQQNGGAMKNANKRSGNNATSNNNNNNNNLDKPKVKRPRKNAKKSESGTPAPKKKRMTKKKQSASSTPSSTTMS

Source: paper PMC6502868, “Architecture of Saccharomyces cerevisiae SAGA complex” (Cell Discovery, 2019)
